Target: YB-1 protein, P67809
Sequence (P67809 whole entry, looked up): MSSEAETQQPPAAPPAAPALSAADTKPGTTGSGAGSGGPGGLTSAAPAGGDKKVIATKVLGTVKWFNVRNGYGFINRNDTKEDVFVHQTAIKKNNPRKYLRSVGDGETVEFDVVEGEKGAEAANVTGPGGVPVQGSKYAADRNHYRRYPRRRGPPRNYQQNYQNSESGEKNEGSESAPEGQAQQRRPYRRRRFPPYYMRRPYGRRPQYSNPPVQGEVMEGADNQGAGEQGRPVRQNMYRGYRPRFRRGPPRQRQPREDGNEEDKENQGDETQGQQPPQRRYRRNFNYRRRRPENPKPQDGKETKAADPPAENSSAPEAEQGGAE

B1: serine threonine kinase 32C (STK32C) (protein)
chain: MRSGAERRGSSAAASPGSPPPGRARPAGSDAPSALPPPAAGQPRARDSGDVRSQPRPLFQWSKWKKRMGSSMSAATARRPVFDDKEDVNFDHFQILRAIGKGSFGKVCIVQKRDTEKMYAMKYMNKQQCIERDEVRNVFRELEILQEIEHVFLVNLWYSFQDEEDMFMVVDLLLGGDLRYHLQQNVQFSEDTVRLYICEMALALDYLRGQHIIHRDVKPDNILLDERGHAHLTDFNIATIIKDGERATALAGTKPYMAPEIFHSFVNGGTGYSFEVDWWSVGVMAYELLRGWRPYDIHSSNAVESLVQLFSTVSVQYVPTWSKEMVALLRKLLTVNPEHRLSSLQDVQAAPALAGVLWDHLSEKRVEPGFVPNKGRLHCDPTFELEEMILESRPLHKKKKRLAKNKSRDNSRDSSQSENDYLQDCLDAIQQDFVIFNREKLKRSQDLPREPLPAPESRDAAEPVEDEAERSALPMCGPICPSAGSG
B1 was tested, and the “in vitro kinase assay with P32-labeled ATP (YB-1 with serine 165 / serine 167 mutated to alanine as substrate, STK32C as enzyme source)” value was “it was confirmed that the serine 167 of the YB-1 substrate protein was phosphorylated by SKT32C”.
